Test results: the supplement of paper PMC10065799, “High-throughput profiling of sequence recognition by tyrosine kinases and SH2 domains using bacterial peptide display” (eLife, 2023)

Legend:
[1] = target: EPHB1 (UniProt P54762); assay: phosphorylation enrichment, bacterial display (enrichment ratio); higher = better substrate or ligand; peptides without Tyr show the background
[2] = target: Fyn (UniProt P06241); assay: as above
[3] = target: FGFR1 (UniProt P11362); assay: as above
[4] = system: c-Src; assay: as above
[5] = target: Hck (UniProt P08631); assay: as above
[6] = target: MERTK (UniProt Q12866); assay: as above
[7] = system: Fer (mouse); assay: as above
[8] = system: c-Abl (mouse); assay: as above
[9] = target: Fes (UniProt P07332); assay: as above
[10] = system: AncSZ; assay: as above
[11] = target: EPHB2 (UniProt P29323); assay: as above
[12] = target: Jak2 (UniProt O60674); assay: as above
[13] = target: FGFR3 (UniProt P22607); assay: as above
[14] = target: SHP2-C SH2; assay: SH2 binding enrichment of the phosphorylated peptide, bacterial display (enrichment ratio); higher = better substrate or ligand; peptides without Tyr show the background
[15] = target: c-Src SH2; assay: as above
[16] = target: Grb2 SH2 (UniProt P62993); assay: as above
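Wherever SH2 binding enrichment of the phosphorylated peptide, bacterial display is given: peptide library displayed on the E. coli surface as eCPX fusions, selected cells deep-sequenced, score is each peptide's frequency after selection divided by its frequency in the input.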
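Wherever phosphorylation enrichment, bacterial display is given: 11-residue human phosphosite peptides and single-mutation variants displayed on the E. coli surface, counted by deep sequencing, each peptide's frequency after selection divided by its frequency in the unselected input library; frequency after pTyr selection over input frequency; kinase dosed for 20-30% of maximal phosphorylation in three min.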

EPHB2, sequence (P29323 whole entry, looked up): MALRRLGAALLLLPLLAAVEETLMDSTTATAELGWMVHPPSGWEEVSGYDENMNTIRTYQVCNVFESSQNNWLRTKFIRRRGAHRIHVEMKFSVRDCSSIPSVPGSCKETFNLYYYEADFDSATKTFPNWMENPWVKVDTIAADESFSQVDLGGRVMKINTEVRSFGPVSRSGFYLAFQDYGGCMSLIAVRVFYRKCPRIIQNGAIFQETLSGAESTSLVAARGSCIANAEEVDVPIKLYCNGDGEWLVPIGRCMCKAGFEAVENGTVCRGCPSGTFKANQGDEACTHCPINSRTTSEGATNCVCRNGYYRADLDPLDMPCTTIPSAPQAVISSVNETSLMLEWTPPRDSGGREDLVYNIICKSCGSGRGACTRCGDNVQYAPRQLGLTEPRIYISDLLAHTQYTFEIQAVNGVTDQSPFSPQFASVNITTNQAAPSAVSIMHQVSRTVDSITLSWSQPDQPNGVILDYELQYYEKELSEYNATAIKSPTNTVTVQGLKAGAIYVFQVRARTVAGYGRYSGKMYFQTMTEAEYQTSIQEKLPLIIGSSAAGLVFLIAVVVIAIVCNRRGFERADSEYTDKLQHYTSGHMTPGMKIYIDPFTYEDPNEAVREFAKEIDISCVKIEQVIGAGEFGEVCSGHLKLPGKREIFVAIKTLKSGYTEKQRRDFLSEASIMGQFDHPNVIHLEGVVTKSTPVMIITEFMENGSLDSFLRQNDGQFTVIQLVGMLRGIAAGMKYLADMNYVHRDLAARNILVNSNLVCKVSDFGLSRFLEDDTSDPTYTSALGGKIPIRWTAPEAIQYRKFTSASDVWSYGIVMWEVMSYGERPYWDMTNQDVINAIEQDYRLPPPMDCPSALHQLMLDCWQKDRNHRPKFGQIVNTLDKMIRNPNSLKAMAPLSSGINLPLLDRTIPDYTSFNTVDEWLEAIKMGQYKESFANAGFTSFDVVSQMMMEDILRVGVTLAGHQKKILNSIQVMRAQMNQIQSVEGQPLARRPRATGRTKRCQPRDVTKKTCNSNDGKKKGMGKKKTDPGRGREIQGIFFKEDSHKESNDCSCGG
Fyn, sequence (P06241 whole entry, looked up): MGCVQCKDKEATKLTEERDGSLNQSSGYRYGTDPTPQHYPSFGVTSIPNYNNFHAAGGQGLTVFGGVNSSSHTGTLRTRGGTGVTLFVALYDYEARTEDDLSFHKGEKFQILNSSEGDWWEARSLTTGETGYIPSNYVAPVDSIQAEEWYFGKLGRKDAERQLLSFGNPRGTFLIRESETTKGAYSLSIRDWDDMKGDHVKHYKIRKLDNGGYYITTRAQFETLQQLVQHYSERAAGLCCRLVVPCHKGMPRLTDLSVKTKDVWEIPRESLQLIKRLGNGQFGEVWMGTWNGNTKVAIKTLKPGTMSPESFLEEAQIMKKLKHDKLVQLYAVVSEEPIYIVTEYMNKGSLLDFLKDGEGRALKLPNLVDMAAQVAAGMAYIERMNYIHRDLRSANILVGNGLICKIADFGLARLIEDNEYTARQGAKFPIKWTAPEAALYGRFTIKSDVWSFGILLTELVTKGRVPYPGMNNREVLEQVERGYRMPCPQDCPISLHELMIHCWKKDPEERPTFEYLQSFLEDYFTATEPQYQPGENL
FGFR1, sequence (P11362 whole entry, looked up): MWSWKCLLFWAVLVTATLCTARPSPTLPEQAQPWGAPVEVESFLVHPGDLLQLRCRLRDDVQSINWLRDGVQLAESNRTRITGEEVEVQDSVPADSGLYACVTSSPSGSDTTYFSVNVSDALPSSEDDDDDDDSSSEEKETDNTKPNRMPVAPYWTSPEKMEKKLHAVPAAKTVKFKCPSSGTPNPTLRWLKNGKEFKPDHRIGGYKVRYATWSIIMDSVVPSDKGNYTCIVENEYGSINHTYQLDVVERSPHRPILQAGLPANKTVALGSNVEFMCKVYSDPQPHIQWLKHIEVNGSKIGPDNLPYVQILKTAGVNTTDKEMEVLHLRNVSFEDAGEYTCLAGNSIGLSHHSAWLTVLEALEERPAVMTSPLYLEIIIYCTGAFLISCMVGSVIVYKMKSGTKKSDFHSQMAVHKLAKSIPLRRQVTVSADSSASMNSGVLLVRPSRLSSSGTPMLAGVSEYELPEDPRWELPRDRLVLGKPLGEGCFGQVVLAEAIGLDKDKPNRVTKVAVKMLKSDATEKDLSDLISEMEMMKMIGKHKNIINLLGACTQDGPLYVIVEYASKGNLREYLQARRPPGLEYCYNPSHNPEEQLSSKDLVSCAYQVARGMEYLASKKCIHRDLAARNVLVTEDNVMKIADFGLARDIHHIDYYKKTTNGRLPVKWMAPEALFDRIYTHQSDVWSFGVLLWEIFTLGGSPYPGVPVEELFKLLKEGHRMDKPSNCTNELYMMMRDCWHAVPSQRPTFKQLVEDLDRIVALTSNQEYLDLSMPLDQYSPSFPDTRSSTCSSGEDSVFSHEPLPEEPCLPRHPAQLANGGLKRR
EPHB1, sequence (P54762 whole entry, looked up): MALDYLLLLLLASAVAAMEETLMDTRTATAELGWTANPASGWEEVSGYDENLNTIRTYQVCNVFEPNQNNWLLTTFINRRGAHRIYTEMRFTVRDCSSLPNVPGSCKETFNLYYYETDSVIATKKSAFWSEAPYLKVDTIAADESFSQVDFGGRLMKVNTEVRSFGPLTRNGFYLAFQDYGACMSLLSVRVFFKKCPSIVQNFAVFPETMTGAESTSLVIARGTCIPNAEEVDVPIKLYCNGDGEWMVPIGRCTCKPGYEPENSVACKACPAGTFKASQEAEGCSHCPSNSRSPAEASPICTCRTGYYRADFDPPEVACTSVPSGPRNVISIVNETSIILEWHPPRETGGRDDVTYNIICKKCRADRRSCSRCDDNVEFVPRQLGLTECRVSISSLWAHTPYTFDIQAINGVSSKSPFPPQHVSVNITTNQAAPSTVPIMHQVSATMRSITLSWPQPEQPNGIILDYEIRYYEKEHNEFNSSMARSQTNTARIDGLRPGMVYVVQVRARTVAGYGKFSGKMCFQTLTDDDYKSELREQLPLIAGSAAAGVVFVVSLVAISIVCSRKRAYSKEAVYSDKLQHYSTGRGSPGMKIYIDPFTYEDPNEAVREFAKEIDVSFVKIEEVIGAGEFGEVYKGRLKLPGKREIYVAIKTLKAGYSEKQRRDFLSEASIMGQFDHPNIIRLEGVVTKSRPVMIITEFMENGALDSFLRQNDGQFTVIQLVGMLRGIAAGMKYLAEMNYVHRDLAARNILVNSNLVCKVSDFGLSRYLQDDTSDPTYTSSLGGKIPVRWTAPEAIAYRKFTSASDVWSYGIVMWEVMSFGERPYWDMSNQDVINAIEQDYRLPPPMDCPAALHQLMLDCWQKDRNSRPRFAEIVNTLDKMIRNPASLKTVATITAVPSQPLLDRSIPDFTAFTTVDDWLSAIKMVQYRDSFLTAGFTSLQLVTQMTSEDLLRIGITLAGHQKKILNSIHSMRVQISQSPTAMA
Jak2, sequence (O60674 whole entry, looked up): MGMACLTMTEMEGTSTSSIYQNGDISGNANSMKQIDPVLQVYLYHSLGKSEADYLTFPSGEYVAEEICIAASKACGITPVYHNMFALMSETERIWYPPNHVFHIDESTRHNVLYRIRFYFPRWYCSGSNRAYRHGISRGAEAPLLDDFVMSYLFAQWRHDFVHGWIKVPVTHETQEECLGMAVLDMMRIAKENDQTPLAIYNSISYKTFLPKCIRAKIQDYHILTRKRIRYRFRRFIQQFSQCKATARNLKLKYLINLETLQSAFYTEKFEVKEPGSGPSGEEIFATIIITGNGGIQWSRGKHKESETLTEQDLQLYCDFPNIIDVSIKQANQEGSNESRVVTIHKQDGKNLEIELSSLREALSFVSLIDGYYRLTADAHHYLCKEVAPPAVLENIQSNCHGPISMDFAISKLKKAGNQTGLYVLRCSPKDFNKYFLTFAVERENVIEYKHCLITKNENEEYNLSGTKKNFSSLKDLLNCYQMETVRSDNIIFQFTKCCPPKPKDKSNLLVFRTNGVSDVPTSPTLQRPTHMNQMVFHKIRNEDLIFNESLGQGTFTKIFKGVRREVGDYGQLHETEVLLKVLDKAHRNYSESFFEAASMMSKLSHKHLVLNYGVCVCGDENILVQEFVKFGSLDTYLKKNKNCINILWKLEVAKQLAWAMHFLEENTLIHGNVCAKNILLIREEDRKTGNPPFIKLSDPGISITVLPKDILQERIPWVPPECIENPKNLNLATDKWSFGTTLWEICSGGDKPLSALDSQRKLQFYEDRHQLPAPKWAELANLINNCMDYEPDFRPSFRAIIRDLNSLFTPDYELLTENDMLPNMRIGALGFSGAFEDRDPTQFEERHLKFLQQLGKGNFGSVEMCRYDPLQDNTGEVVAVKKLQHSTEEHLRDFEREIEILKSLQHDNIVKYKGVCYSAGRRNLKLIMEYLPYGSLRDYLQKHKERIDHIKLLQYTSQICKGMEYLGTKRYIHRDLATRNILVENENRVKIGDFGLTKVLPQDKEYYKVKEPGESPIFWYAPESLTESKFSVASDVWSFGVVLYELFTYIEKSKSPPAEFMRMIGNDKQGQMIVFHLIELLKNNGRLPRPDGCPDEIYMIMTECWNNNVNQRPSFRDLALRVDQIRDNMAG
Hck, sequence (P08631 whole entry, looked up): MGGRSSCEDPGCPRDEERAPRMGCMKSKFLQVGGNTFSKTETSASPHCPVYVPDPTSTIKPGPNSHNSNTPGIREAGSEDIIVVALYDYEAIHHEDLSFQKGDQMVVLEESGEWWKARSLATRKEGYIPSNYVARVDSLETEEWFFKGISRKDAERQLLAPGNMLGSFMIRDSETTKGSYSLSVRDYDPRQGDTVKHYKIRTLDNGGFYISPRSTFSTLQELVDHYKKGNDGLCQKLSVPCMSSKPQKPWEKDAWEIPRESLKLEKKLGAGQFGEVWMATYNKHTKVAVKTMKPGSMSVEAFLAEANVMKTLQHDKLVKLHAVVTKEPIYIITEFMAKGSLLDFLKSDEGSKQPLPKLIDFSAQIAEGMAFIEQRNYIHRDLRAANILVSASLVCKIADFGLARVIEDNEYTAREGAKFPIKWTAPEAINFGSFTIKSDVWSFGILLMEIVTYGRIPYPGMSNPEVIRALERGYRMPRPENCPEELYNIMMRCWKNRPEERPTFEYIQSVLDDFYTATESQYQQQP

Row | Sequence | SH2 binding enrichment [14] | SH2 binding enrichment [15] | SH2 binding enrichment [16] | phosphorylation enrichment [1] | phosphorylation enrichment [2] | phosphorylation enrichment [3] | phosphorylation enrichment [4] | phosphorylation enrichment [5] | phosphorylation enrichment [6] | phosphorylation enrichment [7] | phosphorylation enrichment [8] | phosphorylation enrichment [9] | phosphorylation enrichment [10] | phosphorylation enrichment [11] | phosphorylation enrichment [12] | phosphorylation enrichment [13]
1 | PQAVRYIYTID [DCX_Y103_G100A] | 17.1 | 0.644 | 0.882 | 0.74 | 7.37 | 0.723 | 6.46 | 3.66 | 1.72 | 0.67 | 1.01 | 1.42 | 1.12 | 0.722 | 0.983 | 0.74
2 | SEDSEYYKAFE [CASQ2_Y178] | 0.614 | 0.558 | 0.827 | 0.656 | 0.621 | 0.58 | 0.698 | 0.61 | 0.494 | 0.535 | 0.695 | 1.16 | 1.71 | 0.611 | 1.17 | 0.98
3 | ISKKIYDTIHD [CTNNA3_Y614] | 0.675 | 5.91 | 0.746 | 0.351 | 0.584 | 0.433 | 0.579 | 0.742 | 0.445 | 0.421 | 0.452 | 0.587 | 0.555 | 0.516 | 0.582 | 0.357
4 | ERTIEYLEEVV [HADHA_Y239_A244V] | 0.594 | 0.451 | 0.836 | 0.559 | 0.466 | 0.55 | 0.487 | 0.498 | 0.386 | 0.523 | 0.739 | 1.17 | 1.18 | 0.615 | 1.07 | 0.712
5 | SEASYYKSLNL [NGEF_Y289] | 0.644 | 0.588 | 0.718 | 0.499 | 0.539 | 1.29 | 0.515 | 0.643 | 0.659 | 0.497 | 0.615 | 0.793 | 0.827 | 0.56 | 1.1 | 0.979
6 | MDDDQYALLTA [EFCAB6_Y675_T680A] | 0.702 | 0.689 | 0.761 | 0.547 | 0.647 | 1.21 | 0.608 | 0.77 | 0.592 | 0.665 | 0.871 | 1.35 | 1.35 | 0.722 | 1.15 | 1.2
7 | CRIELYRVVES [IGFBP1_Y181] | 0.653 | 0.538 | 0.819 | 0.989 | 0.476 | 0.545 | 0.437 | 0.574 | 0.46 | 0.537 | 0.759 | 1.29 | 1.2 | 0.68 | 1.11 | 0.887
8 | TRSYDYMEGED [FGF7_Y58_G62E] | 1.05 | 10.4 | 0.977 | 0.711 | 0.607 | 5.52 | 0.574 | 0.549 | 0.591 | 0.645 | 0.919 | 1.47 | 1.41 | 0.634 | 1.51 | 0.869
9 | TLQWMYGCDVG [HLA-B_Y123_S121W] | 0.657 | 0.446 | 0.772 | 0.744 | 0.437 | 0.396 | 0.354 | 0.485 | 0.38 | 0.566 | 1.05 | 1.34 | 1.2 | 0.661 | 1.22 | 0.814
10 | TSYSGYRCHRH [NKAPL_Y94_Y96C] | 0.635 | 0.732 | 0.939 | 0.386 | 0.352 | 0.63 | 0.433 | 0.5 | 0.509 | 0.31 | 0.528 | 0.695 | 0.694 | 0.477 | 0.678 | 0.584
11 | SCRENYSYSEE [LEMD3_Y258_D260Y] | 1.08 | 1.66 | 1.04 | 0.66 | 0.512 | 0.561 | 0.47 | 0.548 | 0.428 | 0.48 | 0.652 | 1.22 | 1.18 | 0.604 | 0.892 | 0.76
12 | YVPSFYHAFSG [ACTN4_Y265_S262P] | 0.673 | 0.997 | 1.2 | 2.09 | 1.82 | 1.32 | 2.17 | 1.94 | 7.65 | 0.407 | 1.06 | 0.99 | 0.81 | 1.03 | 0.794 | 1.17
13 | KENITYMKREQ [L1TD1_Y24] | 0.692 | 0.498 | 0.809 | 0.498 | 0.443 | 0.462 | 0.58 | 0.554 | 0.453 | 0.431 | 0.703 | 1.05 | 0.827 | 0.514 | 0.828 | 0.554
14 | YGMSTYITRED [FNDC3B_Y180] | 0.576 | 0.464 | 0.608 | 0.712 | 0.852 | 0.514 | 0.981 | 0.873 | 0.46 | 0.745 | 0.924 | 1.25 | 0.972 | 0.584 | 1.07 | 0.683
15 | GCVRMYELVHR [GLE1_Y135] | 0.908 | 2.25 | 1.06 | 7.65 | 0.599 | 0.498 | 0.761 | 1.64 | 2.95 | 4.34 | 0.754 | 1.28 | 1.07 | 3.69 | 1.01 | 0.71
16 | KKFVPYYDLFM [IPO5_Y530_E525K] | 1.14 | 2.43 | 1.6 | 4.25 | 2.06 | 4.49 | 2.32 | 2.1 | 6.5 | 1.3 | 0.686 | 1.05 | 0.895 | 4.22 | 1.07 | 3.24
17 | FLAVGYHMPHI [IDS_Y225_K227M] | 1.18 | 3.36 | 1.1 | 0.346 | 0.395 | 0.485 | 0.334 | 0.51 | 0.313 | 0.402 | 1.33 | 0.833 | 0.761 | 0.403 | 0.862 | 0.562
18 | YSTPPYLLEAA [BRIP1_Y921_S919P] | 0.811 | 1.08 | 0.862 | 0.664 | 1.56 | 1.16 | 1.6 | 1.61 | 3.63 | 1.09 | 1.8 | 1.17 | 1.77 | 0.711 | 1.04 | 0.935
19 | SLDLSYYTTSS [EMD_Y181_P183T] | 0.851 | 1.58 | 0.955 | 0.596 | 0.53 | 0.872 | 0.755 | 0.576 | 0.614 | 0.462 | 0.976 | 1.12 | 0.921 | 0.601 | 1.45 | 0.989

Continued, in another order:

Row | SH2 binding enrichment [14] | SH2 binding enrichment [15] | SH2 binding enrichment [16] | Sequence | phosphorylation enrichment [1] | phosphorylation enrichment [2] | phosphorylation enrichment [3] | phosphorylation enrichment [4] | phosphorylation enrichment [5] | phosphorylation enrichment [6] | phosphorylation enrichment [7] | phosphorylation enrichment [8] | phosphorylation enrichment [9] | phosphorylation enrichment [10] | phosphorylation enrichment [11] | phosphorylation enrichment [12] | phosphorylation enrichment [13]
20 | 1.79 | 1.29 | 1.64 | HQKKPYCHAHN [NRAP_Y53] | 1.08 | 0.828 | 0.983 | 0.591 | 1.05 | 0.623 | 1.85 | 2.3 | 1.62 | 1.82 | 0.8 | 3.5 | 2.09
21 | 0.511 | 0.515 | 0.826 | REVVNYVQKRS [RMI1_Y450_N455S] | 0.459 | 0.581 | 0.65 | 0.564 | 0.484 | 0.68 | 0.525 | 0.519 | 1.01 | 0.981 | 0.35 | 0.468 | 0.835
22 | 1.65 | 0.766 | 1.47 | PASWTYVRWFD [PTDSS1_Y274] | 1.12 | 0.669 | 0.907 | 1.01 | 1.14 | 0.51 | 0.729 | 1.04 | 1.79 | 1.71 | 1.1 | 1.79 | 1.35
23 | 0.713 | 0.527 | 0.694 | DFTSRYLSASD [PKHD1_Y828_N830S] | 0.549 | 0.466 | 0.535 | 0.329 | 0.453 | 0.46 | 0.42 | 0.546 | 0.846 | 0.79 | 0.564 | 0.625 | 0.605
24 | 0.393 | 0.472 | 0.94 | SECCKYKIDNP [OSMR_Y689] | 0.464 | 0.411 | 0.756 | 0.46 | 0.381 | 0.419 | 0.407 | 0.539 | 0.786 | 0.642 | 0.416 | 0.658 | 0.488
25 | 0.499 | 0.59 | 0.817 | LGPSDYFGETA [PRKAR1A_Y323_I327T] | 0.597 | 0.518 | 0.585 | 0.55 | 0.509 | 0.398 | 0.422 | 0.448 | 0.808 | 0.964 | 0.425 | 0.749 | 0.636
26 | 0.906 | 1.53 | 1.35 | LTRDIYKNDYY [ROS1_Y2110_A2106T] | 2.15 | 1.82 | 5.83 | 2.86 | 1.48 | 0.839 | 1 | 1.21 | 1.88 | 2.28 | 2.79 | 2.28 | 3.61
27 | 0.7 | 1.51 | 1.43 | LFLALYTGLVH [PIGB_Y402] | 1.26 | 1.42 | 0.775 | 2.11 | 2.29 | 1.2 | 1.46 | 1.38 | 2.02 | 2.04 | 1.4 | 1.53 | 1.39
28 | 0.494 | 0.481 | 0.699 | HSFNSYTFPRL [PAK5_Y316_YF] | 0.802 | 0.407 | 0.59 | 0.374 | 0.525 | 0.55 | 0.489 | 0.849 | 1.74 | 1.78 | 0.629 | 1.31 | 0.958
29 | 1.71 | 1.16 | 1.73 | RGVAHYILQTF [SLC39A4_Y359_T357A] | 0.718 | 0.636 | 0.456 | 0.743 | 0.685 | 0.583 | 0.554 | 1.13 | 1.34 | 1.48 | 0.724 | 1.33 | 0.628
